Source: article PMC5458078, “Global mapping of CARM1 substrates defines enzyme specificity and substrate recognition” (Nature Communications, 2017)

Assays:
HEK293T cells = test: Western blot of FLAG-tagged TET2 with ADMA antibodies, wild type vs CARM1 KO; format: cell-based
Method: TET2, methylcytosine dioxygenase with a prominent role in DNA demethylation frequently mutated in various human cancers, was identified among novel CARM1 substrates. To assure its correct identification, we probed FLAG-tagged TET2 with ADMA antibody in wild type and CARM1 KO HEK293T cells (Fig. 2c).
(§1) Cells were collected by trypsinization, washed with Dulbecco's phosphate buffer saline (Life Technologies, Carlsbad, CA) and lysed by suspension in lysis buffer (50 mM Tris-HCl pH 8.0, 150 mM NaCl, 10% glycerol, 0.5% Triton X-100 and 1 × protease inhibitor cocktail (Sigma-Aldrich)). After brief sonication followed by centrifugation, total protein was quantified using the BioRad Protein Assay (BioRad, Hercules, CA), and 20 μg protein was resolved by SDS–PAGE. Proteins were transferred to a nitrocellulose membrane for 1.5 h at 350 mA. Membranes were blocked with 5% nonfat milk at room temperature for 1 h and incubated overnight with diluted primary antibody at 4 °C. Membranes were then washed and incubated with HRP-conjugated secondary antibody for 1 h at room temperature. Signal was visualized by enhanced chemiluminescence reagents (Thermo Scientific, Rockford, IL) and X-ray film exposure followed by scanning and digitalization. Me-PABP1 and PABP1 antibodies, me-BAF155 antibody[20] and me-MED12 antibody[30] were generated previously in the Xu lab. […]

[1] = tested on: BAF155, MED12, PABP1, NCOA3 and TET2; test: Co-immunoprecipitation of BAF155, MED12, PABP1, NCOA3 and TET2 with FLAG-tagged CARM1, western blot; format: cell-based; conditions: FLAG-tagged construct transiently transfected in HEK293T CARM1 KO cells; anti-FLAG IP
Source text: The structure of the N-terminal domain of CARM1 (residues 28–140) resembles those of the EVH1 domains, a subfamily of PH domains that bind proline-rich sequences. With our discovery that CARM1 substrates contain proline-rich motifs, we posited that the protein's N-terminal domain may be required for substrate recognition. To test this hypothesis, we generated three CARM1 constructs: one full-length (CARM1 FL) and two N-terminal truncations CARM1 28–608 and CARM1 140–608 (Fig. 3a). […] We transiently transfected the three FLAG-tagged CARM1 fusion constructs in HEK293T CARM1 KO cells. CARM1 was immunoprecipitated from all three cell lines using anti-FLAG M2 resin, and four known CARM1 substrates/interactors (that is, BAF155 (ref. [20]), MED12 (ref. [30]), PABP1 (ref. [36]) and NCOA3 (ref. [19])) and newly identified TET2 were detected by western blotting. […] To globally assess the magnitude of reduction in CARM1–substrate interactions induced by the loss of the EVH1 domain, we visualized overall protein changes in CARM1 immunoprecipitates by western blotting using the ADMA antibody (Fig. 3c).
as §1, with “digitalization.” for “digitalization. Me-PABP1 and PABP1 antibodies, me-BAF155 antibody[20] and me-MED12 antibody[30] were generated previously in the Xu lab.”

[2] = tested on: recombinant full-length BAF155 protein; test: In vitro methylation of full-length FLAG-BAF155 by recombinant CARM1 proteins, autoradiography; format: biochemical; conditions: 3H-SAM, 50 mM Tris-HCl pH 8.0, 100 mM NaCl, 0.5 mM EDTA, 1–4 h, 30 °C
Method: The FL and N-terminal domain-deleted version of human CARM1 cDNAs, and other PRMT FL cDNAs were cloned into pFN21K Halo Tag CMV Flexi mammalian expression vector (Promega, Madison, WI) using the unique Sgfl and Pmel site[55]. To express the protein, DNA constructs were transiently transfected into HEK293T CARM1 KO cells in 15 cm dishes using transIT-LT1 reagent (Mirus Bio, Madison, WI) according to the manufacturer's protocol. Proteins were allowed to express for 48 h. Cell pellets were then collected and lysed in lysis buffer (50 mM HEPES, pH 7.5, 150 mM NaCl, 0.005% NP-40, 0.5 mM EDTA, supplemented with 1 × protease inhibitor cocktail before use). The cells were sonicated on ice using a Branson Sonifier 450 with a microtip at 35% amplitude (10 s on, 30 s off, 6 cycles). […] The resin was centrifuged at 3,000 r.p.m. for 5 min, and the supernatant containing the cleaved protein was collected and protein concentration was determined using the Bradford assay (Thermo Scientific, Rockford, IL). Protein purity was assessed by running SDS–PAGE and Coomassie Blue staining.
CMX-Flag-BAF155 construct was generated by subcloning a PCR-amplified Flag-BAF155 fragment into the CMX-expression vector. […] Protein concentration was determined using Bradford assay and protein purity was assessed by SDS–PAGE and Coomassie Blue staining. […]

HEK293T CARM1 KO cells [3] = test: Rescue of endogenous BAF155 and MED12 methylation, transient transfection, western blot; format: cell-based; conditions: transient expression in HEK293T CARM1 KO cells
Method: (§2) Next, we transiently transfected FL and the two aforementioned CARM1 truncations in HEK293T CARM1 KO cells and measured substrate methylation by western blotting with ADMA antibodies.
Cells were collected by trypsinization, washed with Dulbecco's phosphate buffer saline (Life Technologies, Carlsbad, CA) and lysed by suspension in lysis buffer (50 mM Tris-HCl pH 8.0, 150 mM NaCl, 10% glycerol, 0.5% Triton X-100 and 1 × protease inhibitor cocktail (Sigma-Aldrich)). After brief sonication followed by centrifugation, total protein was quantified using the BioRad Protein Assay (BioRad, Hercules, CA), and 20 μg protein was resolved by SDS–PAGE. Proteins were transferred to a nitrocellulose membrane for 1.5 h at 350 mA. Membranes were blocked with 5% nonfat milk at room temperature for 1 h and incubated overnight with diluted primary antibody at 4 °C. Membranes were then washed and incubated with HRP-conjugated secondary antibody for 1 h at room temperature. Signal was visualized by enhanced chemiluminescence reagents (Thermo Scientific, Rockford, IL) and X-ray film exposure followed by scanning and digitalization. Me-PABP1 and PABP1 antibodies, me-BAF155 antibody[20] and me-MED12 antibody[30] were generated previously in the Xu lab. FLAG antibody (catalogue #F7425) was purchased from Sigma and used at a dilution of 1:5,000; BAF155 antibody (sc-10756) was purchased from Santa Cruz and used at a dilution of 1:1,000; MED12 antibody (ab70842) was purchased from Abcam (Cambridge, MA) and used at 1:1,000 dilution.

HEK293T CARM1 KO cells [4] = test: Total ADMA levels after transient transfection, western blot; format: cell-based; conditions: transient expression in HEK293T CARM1 KO cells
Method: as §2, §1

Molecule	ADMA modification of TET2 in the absence of CARM1 (HEK293T cells)	Co-precipitation of BAF155, MED12, PABP1, NCOA3 and TET2 [1]	Methylation of full-length BAF155 [2]	Methylation of endogenous BAF155 and MED12 (HEK293T CARM1 KO cells [3])	Total levels of ADMA modification (HEK293T CARM1 KO cells [4])
TET2: FLAG-tagged TET2, methylcytosine dioxygenase	complete disappearance of ADMA modification on TET2				
CARM1 FL: full-length CARM1, contained 608 residues (protein, left off: FLAG, end not stated, kept, full-length CARM1, contained 608 residues) MAAAAAAVGPGAGGAGSAVPGGAGPCATVSVFPGARLLTIGDANGEIQRHAEQQALRLEVRAGPDSAGIALYSHEDVCVFKCSVSRETECSRVGKQSFIITLGCNSVLIQFATPNDFCSFYNILKTCRGHTLERSVFSERTEESSAVQYFQFYGYLSQQQNMMQDYVRTGTYQRAILQNHTDFKDKIVLDVGCGSGILSFFAAQAGARKIYAVEASTMAQHAEVLVKSNNLTDRIVVIPGKVEEVSLPEQVDIIISEPMGYMLFNERMLESYLHAKKYLKPSGNMFPTIGDVHLAPFTDEQLYMEQFTKANFWYQPSFHGVDLSALRGAAVDEYFRQPVVDTFDIRILMAKSVKYTVNFLEAKEGDLHRIEIPFKFHMLHSGLVHGLAFWFDVAFIGSIMTVWLSTAPTEPLTHWYQVRCLFQSPLFAKAGDTLSGTCLLIANKRQSYDISIVAQVDQTGSKSSNLLDLKNPFFRYTGTTPSPPPGSHYTSPSENMWNTGSTYNLSSGMAVAGMPTAYDLSSVIASGSSVGHNNLIPLANTGIVNHTHSRMGSIMSTGIVQGSSGAQGSGGGSTSAHYAVNSQFTMGGPAISMASPMSIPTNTMHYGS		all five proteins were co-precipitated	methylated recombinant full-length BAF155 protein	methylation of endogenous BAF155 and MED12 was restored	recovered to the level of parental cells
CARM1 28–608: CARM1 28–608 lacks the first, unstructured 28 residues (protein, left off: FLAG, end not stated, kept, CARM1 28–608 lacks the first, unstructured 28 residues) TVSVFPGARLLTIGDANGEIQRHAEQQALRLEVRAGPDSAGIALYSHEDVCVFKCSVSRETECSRVGKQSFIITLGCNSVLIQFATPNDFCSFYNILKTCRGHTLERSVFSERTEESSAVQYFQFYGYLSQQQNMMQDYVRTGTYQRAILQNHTDFKDKIVLDVGCGSGILSFFAAQAGARKIYAVEASTMAQHAEVLVKSNNLTDRIVVIPGKVEEVSLPEQVDIIISEPMGYMLFNERMLESYLHAKKYLKPSGNMFPTIGDVHLAPFTDEQLYMEQFTKANFWYQPSFHGVDLSALRGAAVDEYFRQPVVDTFDIRILMAKSVKYTVNFLEAKEGDLHRIEIPFKFHMLHSGLVHGLAFWFDVAFIGSIMTVWLSTAPTEPLTHWYQVRCLFQSPLFAKAGDTLSGTCLLIANKRQSYDISIVAQVDQTGSKSSNLLDLKNPFFRYTGTTPSPPPGSHYTSPSENMWNTGSTYNLSSGMAVAGMPTAYDLSSVIASGSSVGHNNLIPLANTGIVNHTHSRMGSIMSTGIVQGSSGAQGSGGGSTSAHYAVNSQFTMGGPAISMASPMSIPTNTMHYGS		all five proteins were co-precipitated	methylated recombinant full-length BAF155 protein	methylation of endogenous BAF155 and MED12 was restored	recovered to the level of parental cells
